Legend:
MCF-7 cells [1] = test: KGF-mediated motility of MCF-7 cells with TK signaling pathway inhibitors; type: cell-based, human
From the text: (§1) In order to define the signaling pathway involved in the KGF-mediated breast cancer cell motility, we have examined the influence of inhibitors of intermediates in the TK signaling pathway (29, 30, 31). […] In addition, inhibition of Grb2, using a specific Grb2 antisense oligonucleotide, abolished KGF-mediated motility of MCF-7 cells (30, 31). […] Thus, we have observed that the KGFR-Erk1,2 pathway mediates KGF-induced cell motility in ER-positive breast cancer cells. Accordingly, inhibitors targeting the KGF/KGFR/Grb2/Erk1,2 pathway have the potential to be selective therapeutic or chemopreventive modalities against breast cancer metastasis. […] Thus we next considered the design of selective KGFR TK inhibitors to be examined in this study.

MCF-7 cells [2] = test: MCF-7 nude mouse xenograft model, growth and metastasis (β-gal reporter); type: in vivo, female nu/nu balb/C mice
Protocol: In these experiments 5×10^6 viable MCF-7 cells, transfected with a β-gal reporter plasmid, were embedded into 0.2 ml Matrigel and implanted into female nude mice. Four animal/group were treated with either KGF (2.5 μg/kg) or control vehicle every other day. After 21 days of treatment the tumor, lung and liver tissue were removed and assayed for b-gal activity using a CRPG substrate for β-gal.
In order to determine the influence of KGF on tumor growth and development in vivo, we recently examined the effect of KGF treatment on the growth and metastasis of MCF-7 cells in a nude mouse xenograft model (27, 28). In these experiments 5×10^6 viable MCF-7 cells, transfected with a β-gal reporter plasmid, were embedded into 0.2 ml Matrigel and implanted into female nu/nu balb/C mice at 6 weeks of age. At 40 days after tumor cell implantation, when approximately 0.5 cm tumor masses were observed, animal were treated with either human recombinant KGF or control vehicle by intra-tumoral injections every other day for a period of 21 days. […] In tumor and tissue samples, collected at the end of the treatment period, the β-gal activity was used as a reported to quantify MCF-7 cells as previously described (27). […] However, in the connective tissue surrounding the tumors and in the lung and liver tissue samples, the β-gal activity was much greater in the KGF treated than in the control samples (FIG. 2) (28). The results of the present study indicate that KGF enhances the migration of breast cancer cells away from the tumor mass, resulting in measurable lung and liver metastasis within the 21 day treatment period.

phospho-Erk1,2 = test: Western blot of phospho-Erk1,2 in MCF-7 cells; type: cell-based, human; conditions: 50 ng/ml KGF and/or inhibitor for 3 days
Protocol: The cells were treated with 50 ng/ml KGF and/or signal transduction inhibitor for 3 days. Equal amounts of protein (10 μg) were loaded for SDS-PAGE analysis.
as §1

MCF-7 human cancer cells = test: Motility effect of KGF by time-lapse videomicroscopy and culture wounding; type: cell-based
From the text: Based on this background information, we examined the motility effect of KGF on human breast cancer cells using time-lapse videomicroscopy and culture wounding (22, 23). […] The KGF motility effect is characterized by a rapid increase in ruffling of the plasma membrane and cell scattering. […] Scanning electron microscopy of KGF-treated MCF-7 cells confirmed dramatic changes in cell morphology consistent with active cell motility (FIG. 1). […] Changes in cell morphology, associated with membrane ruffling and motility are believed to be associated with cytoskeletal reorganization and necessary for adhesion foci, cell surface ligand-receptor binding and regulation of gene transduction (24, 25). Accordingly, we have previously observed a significant alteration in the distribution of f-actin in the cytoplasm of KGF stimulated MCF-7 cells (22).

[3] = test system: MDA-MB-231, SK-BR-3, BT-20; test: KGF motility response of ER-negative cell lines; type: cell-based, human; conditions: KGF 10-50 ng/ml
MCF-7, T-47D, ZR-75-1 = test: KGF motility response of ER-positive human breast cancer cell lines; type: cell-based; conditions: KGF 10-50 ng/ml
Protocol: In our previous experiments, all of the estrogen receptor (ER)-positive human breast cancer cell lines examined (MCF-7, T-47D, ZR-75-1) responded to KGF treatment (10-50 ng/ml); however, the responsiveness differed substantially among the cell lines tested.

Molecule	KGF-mediated motility of MCF-7 cells (MCF-7 cells [1])	β-gal activity in connective tissue surrounding the tumors, lung and liver (MCF-7 cells [2]; end of 21 day treatment)	β-gal activity in tumor tissue (MCF-7 cells [2]; end of 21 day treatment)	tumor volume (MCF-7 cells [2]; intra-tumoral injections every other day for 21 days, KGF 2.5 μg/kg)	phospho-Erk1,2 protein level (phospho-Erk1,2)	duration of change in morphology of MCF-7 cells (MCF-7 human cancer cells)	motility effect on MCF-7 cells (MCF-7 human cancer cells)	perimeter index (PI) (MCF-7 human cancer cells)	time of maximal KGF motility effect (MCF-7 human cancer cells)	enhancement in motility, ER-negative cell lines [3]	response to KGF treatment, ER-positive cell lines (MCF-7, T-47D, ZR-75-1)
COc1cccc(-c2cc(=O)c3ccccc3o2)c1N [PD98059]	completely abolished	–	–	–	–	–	–	–	–	–	–
O=c1c(-c2ccc(O)cc2)coc2cc(O)cc(O)c12 [genistein]	completely abolished	–	–	–	–	–	–	–	–	–	–
KGF: recombinant human Keratinocyte Growth Factor, member of the fibroblast growth factor family (FGF-7) (protein, UniProt P21781 32-194, looked up) Fibroblast growth factor 7: CNDMTPEQMATNVNCSSPERHTRSYDYMEGGDIRVRRLFCRTQWYLRIDKRGKVKGTQEMKNNYNIMEIRTVAVGIVAIKGVESEFYLAMNKEGKLYAKKECNEDCNFKELILENHYNTYASAKWTHNGGEMFVALNQKGIPVRGKKTKKEQKTAHFLPMAIT	–	much greater	significantly less than in the controls	the same as in the control tumors	increase	at least 48 hours	cell scattering motility effect	dose-related increase	one	little or no enhancement	responded

Reference: patent US7960548B2, “Keratinocyte growth factor receptor—tyrosine specific inhibitors for the prevention of cancer metastatis” (The Ohio State University Research Foundation, priority 2005, dated 2011)
